# Data: the supplement of paper PMC10567573
# B1: SLC6A17 (parent)
# chain: KAVEEELDAEDRPAWNSKLQYILA
# Variants of: B1
# Assay: protein stability index of a GFP-peptide fusion (GPS, HEK-293T) (PSI 1-6); higher = more stable
# Conditions: c terminus: a fixed tail appended
# 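Note: lentivirally expressed fusions sorted by FACS into six bins by GFP to DsRed ratio, PSI derived from sequencing read proportions per bin multiplied by bin number.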
row,Variant,protein stability index
1,TAVEEELDAEDRPAWNSKLQYILA,2.39
2,FAVEEELDAEDRPAWNSKLQYILA,2.71
3,SAVEEELDAEDRPAWNSKLQYILA,3.24
4,VAVEEELDAEDRPAWNSKLQYILA,3.64
5,WAVEEELDAEDRPAWNSKLQYILA,1.74
6,YAVEEELDAEDRPAWNSKLQYILA,2.05
7,GAVEEELDAEDRPAWNSKLQYILA,3.25
8,QAVEEELDAEDRPAWNSKLQYILA,2.82
9,MAVEEELDAEDRPAWNSKLQYILA,2.77
10,CAVEEELDAEDRPAWNSKLQYILA,1.62
11,NAVEEELDAEDRPAWNSKLQYILA,3.17
12,PAVEEELDAEDRPAWNSKLQYILA,3.03
13,DAVEEELDAEDRPAWNSKLQYILA,2.96
14,HAVEEELDAEDRPAWNSKLQYILA,2.83
15,EAVEEELDAEDRPAWNSKLQYILA,3.19
16,RAVEEELDAEDRPAWNSKLQYILA,2.34
17,AAVEEELDAEDRPAWNSKLQYILA,2.65
18,IAVEEELDAEDRPAWNSKLQYILA,2.12
19,LAVEEELDAEDRPAWNSKLQYILA,2.08
20,KAVEEELAAEDRPAWNSKLQYILA,3.21
21,KAVEEELSAEDRPAWNSKLQYILA,3.15
22,KAVEEELKAEDRPAWNSKLQYILA,2.93
23,KAVEEELTAEDRPAWNSKLQYILA,2.57
24,KAVEEELNAEDRPAWNSKLQYILA,2.46

row,Variant,protein stability index
1,KAVEEELMAEDRPAWNSKLQYILA,1.92
2,KAVEEELEAEDRPAWNSKLQYILA,2.64
3,KAVEEELFAEDRPAWNSKLQYILA,2.19
4,KAVEEELQAEDRPAWNSKLQYILA,2.25
5,KAVEEELYAEDRPAWNSKLQYILA,2.08
6,KAVEEELRAEDRPAWNSKLQYILA,2.75
7,KAVEEELLAEDRPAWNSKLQYILA,1.77
8,KAVEEELPAEDRPAWNSKLQYILA,3.77
9,KAVEEELVAEDRPAWNSKLQYILA,2.91
10,KAVEEELWAEDRPAWNSKLQYILA,1.83
11,KAVEEELHAEDRPAWNSKLQYILA,2.55
12,KAVEEELIAEDRPAWNSKLQYILA,2.57
13,KAVEEELCAEDRPAWNSKLQYILA,2.14
14,KAVEEELGAEDRPAWNSKLQYILA,2.07
15,KAVEEELDAIDRPAWNSKLQYILA,1.86
16,KAVEEELDAGDRPAWNSKLQYILA,3.72
17,KAVEEELDANDRPAWNSKLQYILA,2.57
18,KAVEEELDAADRPAWNSKLQYILA,2.27
19,KAVEEELDAMDRPAWNSKLQYILA,1.47
20,KAVEEELDACDRPAWNSKLQYILA,2.23
21,KAVEEELDAKDRPAWNSKLQYILA,2.5
22,KAVEEELDAFDRPAWNSKLQYILA,2.63
23,KAVEEELDADDRPAWNSKLQYILA,2.52
24,KAVEEELDAHDRPAWNSKLQYILA,1.84

row,Variant,protein stability index
1,KAVEEELDALDRPAWNSKLQYILA,2.15
2,KAVEEELDAPDRPAWNSKLQYILA,2.28
3,KAVEEELDTEDRPAWNSKLQYILA,2.82
4,KAVEEELDYEDRPAWNSKLQYILA,2.48
5,KAVEEELDVEDRPAWNSKLQYILA,3.1
6,KAVEEELDDEDRPAWNSKLQYILA,2.38
7,KAVEEELDREDRPAWNSKLQYILA,2.69
8,KAVEEELDCEDRPAWNSKLQYILA,2.65
9,KAVEEELDNEDRPAWNSKLQYILA,2.83
10,KAVEEELDKEDRPAWNSKLQYILA,3.15
11,KAVEEELDLEDRPAWNSKLQYILA,2.33
12,KAVEEELDIEDRPAWNSKLQYILA,2.02
13,KAVEEELDMEDRPAWNSKLQYILA,1.73
14,KAVEEELDEEDRPAWNSKLQYILA,2.61
15,KAVEEELDPEDRPAWNSKLQYILA,2.54
16,KAVEEELDGEDRPAWNSKLQYILA,2.24
17,KAVEEELDWEDRPAWNSKLQYILA,2.06
18,KAVEEELDFEDRPAWNSKLQYILA,1.95
19,KAVEEELDHEDRPAWNSKLQYILA,2.41
20,KAVEEELDQEDRPAWNSKLQYILA,2.44
21,KAWEEELDAEDRPAWNSKLQYILA,1.7
22,KAKEEELDAEDRPAWNSKLQYILA,2.94
23,KAQEEELDAEDRPAWNSKLQYILA,2.91
24,KAAEEELDAEDRPAWNSKLQYILA,3.18

row,Variant,protein stability index
1,KAREEELDAEDRPAWNSKLQYILA,3.14
2,KAFEEELDAEDRPAWNSKLQYILA,2.29
3,KADEEELDAEDRPAWNSKLQYILA,3.66
4,KAYEEELDAEDRPAWNSKLQYILA,2.2
5,KAPEEELDAEDRPAWNSKLQYILA,2.58
6,KANEEELDAEDRPAWNSKLQYILA,3.07
7,KALEEELDAEDRPAWNSKLQYILA,2.31
8,KACEEELDAEDRPAWNSKLQYILA,2.77
9,KATEEELDAEDRPAWNSKLQYILA,2.43
10,KAMEEELDAEDRPAWNSKLQYILA,2.19
11,KAIEEELDAEDRPAWNSKLQYILA,2.41
12,KAHEEELDAEDRPAWNSKLQYILA,1.52
13,KASEEELDAEDRPAWNSKLQYILA,2.65
14,KAGEEELDAEDRPAWNSKLQYILA,2.79
15,KAEEEELDAEDRPAWNSKLQYILA,2.75
16,KAVEEEQDAEDRPAWNSKLQYILA,2.53
17,KAVEEEADAEDRPAWNSKLQYILA,3.74
18,KAVEEEKDAEDRPAWNSKLQYILA,2.85
19,KAVEEESDAEDRPAWNSKLQYILA,3.61
20,KAVEEEGDAEDRPAWNSKLQYILA,4.11
21,KAVEEEVDAEDRPAWNSKLQYILA,2.9
22,KAVEEERDAEDRPAWNSKLQYILA,3.53
